Like-named read-outs stand apart in the source and are kept apart here. Square brackets hold non-standard residues; d marks the D form. Ends that are not written are not given here. NMeW = CN[C@@H](Cc1c[nH]c2ccccc12)C(=O)O; Dmt = Cc1cc(O)cc(C)c1C[C@H](N)C(=O)O; NMeY = CN[C@@H](Cc1ccc(O)cc1)C(=O)O; NMeCha = CN[C@@H](CC1CCCCC1)C(=O)O; NMeF = CN[C@@H](Cc1ccccc1)C(=O)O; NMeI = CC[C@H](C)[C@H](NC)C(=O)O; NMePhg = CN[C@H](C(=O)O)c1ccccc1; hPhe = N[C@@H](CCc1ccccc1)C(=O)O; dTic = O=C(O)[C@H]1Cc2ccccc2CN1; β3hF = N[C@H](CC(=O)O)Cc1ccccc1; NMeL = CN[C@@H](CC(C)C)C(=O)O; NMeNle = CCCC[C@H](NC)C(=O)O; NMeNva = CCC[C@H](NC)C(=O)O; NMeV = CN[C@H](C(=O)O)C(C)C; NMeA = CN[C@@H](C)C(=O)O; Nle = CCCC[C@H](N)C(=O)O; Sar = CNCC(=O)O
Assays:
Assay in all cases: cell-based or functional assay
[1] = target: T1, δ-opioid receptor (DOR), Human-ORPD1 (human, UniProt P41143 1-372)
[2] = target: T2, µ-opioid receptor (MOR), Human-ORPM1 (human, UniProt P35372 1-400)
[3] = target: T1, δ-opioid receptor (DOR), Human-ORPD1; remark: listed apart in the source
[4] = target: T2, µ-opioid receptor (MOR), Human-ORPM1; remark: listed apart in the source
[5] = target: T1, δ-opioid receptor (DOR), Human-ORPD1; remark: listed apart in the source
[6] = target: T2, µ-opioid receptor (MOR), Human-ORPM1; remark: listed apart in the source

T1 sequence (P41143 whole entry, stated change not applied): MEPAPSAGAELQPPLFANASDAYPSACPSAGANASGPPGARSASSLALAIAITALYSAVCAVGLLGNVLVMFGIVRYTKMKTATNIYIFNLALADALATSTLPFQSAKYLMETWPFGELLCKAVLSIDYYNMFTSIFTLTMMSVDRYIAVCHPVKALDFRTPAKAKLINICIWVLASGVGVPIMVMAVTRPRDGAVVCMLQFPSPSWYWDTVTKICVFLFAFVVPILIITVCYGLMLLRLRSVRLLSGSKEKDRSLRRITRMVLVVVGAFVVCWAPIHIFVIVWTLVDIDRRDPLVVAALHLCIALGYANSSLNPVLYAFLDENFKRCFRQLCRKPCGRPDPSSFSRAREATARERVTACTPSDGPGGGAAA
T2 sequence (P35372 whole entry): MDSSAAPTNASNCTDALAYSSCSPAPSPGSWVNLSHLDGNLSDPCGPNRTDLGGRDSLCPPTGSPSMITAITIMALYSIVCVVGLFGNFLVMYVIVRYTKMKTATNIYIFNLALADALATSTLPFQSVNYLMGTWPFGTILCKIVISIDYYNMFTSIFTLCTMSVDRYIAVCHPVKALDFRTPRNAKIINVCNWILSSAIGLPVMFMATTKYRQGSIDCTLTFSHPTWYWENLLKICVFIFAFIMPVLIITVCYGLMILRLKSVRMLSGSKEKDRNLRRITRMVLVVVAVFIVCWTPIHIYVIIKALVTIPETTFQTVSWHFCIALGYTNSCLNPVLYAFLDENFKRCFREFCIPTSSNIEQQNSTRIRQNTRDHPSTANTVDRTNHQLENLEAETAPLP

B1: H-DMT-(D)Asp-G-bhF-N(Me)-Trp-OH (peptide)
peptide: H-[Dmt][dD]G[β3hF][NMeW]-OH
SMILES: Cc1cc(O)cc(C)c1C[C@H](N)C(=O)N[C@H](CC(=O)O)C(=O)NCC(=O)N[C@H](CC(=O)N(C)[C@@H](Cc1c[nH]c2ccccc12)C(=O)O)Cc1ccccc1
DOR EC50 [1]: ≤ 1 nM | MOR EC50 [2]: ≤ 1 nM

B2: H-DMT-(D)Asp-G-bhF-N(Me)-Cha-OH (peptide)
peptide: H-[Dmt][dD]G[β3hF][NMeCha]-OH
SMILES: Cc1cc(O)cc(C)c1C[C@H](N)C(=O)N[C@H](CC(=O)O)C(=O)NCC(=O)N[C@H](CC(=O)N(C)[C@@H](CC1CCCCC1)C(=O)O)Cc1ccccc1
DOR EC50 [1]: ≤ 1 nM | MOR EC50 [2]: ≤ 1 nM

B3: H-DMT-(D)Glu-G-bhF-Sar-NH2 (peptide)
peptide: H-[Dmt][dE]G[β3hF][Sar]-NH2
SMILES: Cc1cc(O)cc(C)c1C[C@H](N)C(=O)N[C@H](CCC(=O)O)C(=O)NCC(=O)N[C@H](CC(=O)N(C)CC(N)=O)Cc1ccccc1
DOR EC50 [1]: ≤ 10 nM | MOR EC50 [2]: ≤ 1 nM

H-[Dmt][dA]G[β3hF][NMeA]K (also: homodimer: two monomers joined at X5 through a lysine linker (Dimer A)) [[DMT-((D)Ala)-Gly-(β-homoPhe)-(NMe-Ala)]2-Lys]
DOR EC50 [3]: ≤ 1 nM | MOR EC50 [4]: ≤ 1 nM

B4: H-DMT-(D)Thr-G-bhF-N(Me)-Ile-OH (peptide)
peptide: H-[Dmt][dT]G[β3hF][NMeI]-OH
SMILES: CC[C@H](C)[C@@H](C(=O)O)N(C)C(=O)C[C@H](Cc1ccccc1)NC(=O)CNC(=O)[C@H](NC(=O)[C@@H](N)Cc1c(C)cc(O)cc1C)[C@H](C)O
DOR EC50 [1]: ≤ 1 nM | MOR EC50 [2]: ≤ 1 nM

B5: H-DMT-(D)Asp-G-bhF-N(Me)-Leu-OH (peptide)
peptide: H-[Dmt][dD]G[β3hF][NMeL]-OH
SMILES: Cc1cc(O)cc(C)c1C[C@H](N)C(=O)N[C@H](CC(=O)O)C(=O)NCC(=O)N[C@H](CC(=O)N(C)[C@@H](CC(C)C)C(=O)O)Cc1ccccc1
DOR EC50 [1]: ≤ 1 nM | MOR EC50 [2]: ≤ 1 nM

B6: H-DMT-(D)Glu-G-bhF-N(Me)-Ala-OH (peptide)
peptide: H-[Dmt][dE]G[β3hF][NMeA]-OH
SMILES: Cc1cc(O)cc(C)c1C[C@H](N)C(=O)N[C@H](CCC(=O)O)C(=O)NCC(=O)N[C@H](CC(=O)N(C)[C@@H](C)C(=O)O)Cc1ccccc1
DOR EC50 [1]: ≤ 1 nM | MOR EC50 [2]: ≤ 10 nM

B7: H-DMT-(D)Asp-G-bhF-N(Me)-Phg-OH (peptide)
peptide: H-[Dmt][dD]G[β3hF][NMePhg]-OH
SMILES: Cc1cc(O)cc(C)c1C[C@H](N)C(=O)N[C@H](CC(=O)O)C(=O)NCC(=O)N[C@H](CC(=O)N(C)[C@H](C(=O)O)c1ccccc1)Cc1ccccc1
DOR EC50 [1]: ≤ 1 nM | MOR EC50 [2]: ≤ 1 nM

B8: H-DMT-(D)Thr-G-bhF-N(Me)-Ala-OH (peptide)
peptide: H-[Dmt][dT]G[β3hF][NMeA]-OH
SMILES: Cc1cc(O)cc(C)c1C[C@H](N)C(=O)N[C@@H](C(=O)NCC(=O)N[C@H](CC(=O)N(C)[C@@H](C)C(=O)O)Cc1ccccc1)[C@H](C)O
DOR EC50 [1]: ≤ 1 nM | MOR EC50 [2]: ≤ 1 nM

H-[Dmt][dA]G[β3hF][NMeI]K (also: homodimer: two monomers joined at X5 through a lysine linker (Dimer A)) [[DMT-((D)Ala)-Gly-(β-homoPhe)-(NMe-Ile)]2-Lys]
DOR EC50 [3]: ≤ 10 nM | MOR EC50 [4]: ≤ 10 nM

B9: H-DMT-(D)Asp-G-bhF-Gly-NH2 (peptide)
peptide: H-[Dmt][dD]G[β3hF]G-NH2
SMILES: Cc1cc(O)cc(C)c1C[C@H](N)C(=O)N[C@H](CC(=O)O)C(=O)NCC(=O)N[C@H](CC(=O)NCC(N)=O)Cc1ccccc1
DOR EC50 [1]: ≤ 1 nM | MOR EC50 [2]: ≤ 1 nM

B10: H-DMT-a-hF-Nle-NH2 (peptide)
peptide: H-[Dmt][dA][hPhe][Nle]-NH2
SMILES: CCCC[C@H](NC(=O)[C@H](CCc1ccccc1)NC(=O)[C@@H](C)NC(=O)[C@@H](N)Cc1c(C)cc(O)cc1C)C(N)=O
DOR EC50 [5]: ≤ 1 nM | MOR EC50 [6]: ≤ 1 nM

B11: H-DMT-dTic-G-F-Sar-NH2 (peptide)
peptide: H-[Dmt][dTic]GF[Sar]-NH2
SMILES: Cc1cc(O)cc(C)c1C[C@H](N)C(=O)N1Cc2ccccc2C[C@@H]1C(=O)NCC(=O)N[C@@H](Cc1ccccc1)C(=O)N(C)CC(N)=O
DOR EC50 [5]: ≤ 1 nM | MOR EC50 [6]: ≤ 1 nM

B12: H-DMT-(D)Glu-G-bhF-N(Me)-Ile-OH (peptide)
peptide: H-[Dmt][dE]G[β3hF][NMeI]-OH
SMILES: CC[C@H](C)[C@@H](C(=O)O)N(C)C(=O)C[C@H](Cc1ccccc1)NC(=O)CNC(=O)[C@@H](CCC(=O)O)NC(=O)[C@@H](N)Cc1c(C)cc(O)cc1C
DOR EC50 [1]: ≤ 1 nM | MOR EC50 [2]: ≤ 10 nM

B13: H-DMT-(D)Asp-G-bhF-N(Me)-Val-OH (peptide)
peptide: H-[Dmt][dD]G[β3hF][NMeV]-OH
SMILES: Cc1cc(O)cc(C)c1C[C@H](N)C(=O)N[C@H](CC(=O)O)C(=O)NCC(=O)N[C@H](CC(=O)N(C)[C@H](C(=O)O)C(C)C)Cc1ccccc1
DOR EC50 [1]: ≤ 1 nM | MOR EC50 [2]: ≤ 1 nM

H-[Dmt][dA]G[β3hF][Sar][dK] (also: homodimer: two monomers joined at X5 through a D-lysine linker (Dimer A)) [[DMT-((D)Ala)-Gly-(β-homoPhe)-(Sar)]2-(D-Lys)]
DOR EC50 [3]: ≤ 10 nM | MOR EC50 [4]: ≤ 10 nM

B14: H-DMT-(D)Asp-G-bhF-N(Me)-Ile-OH (peptide)
peptide: H-[Dmt][dD]G[β3hF][NMeI]-OH
SMILES: CC[C@H](C)[C@@H](C(=O)O)N(C)C(=O)C[C@H](Cc1ccccc1)NC(=O)CNC(=O)[C@@H](CC(=O)O)NC(=O)[C@@H](N)Cc1c(C)cc(O)cc1C
DOR EC50 [1]: ≤ 1 nM | MOR EC50 [2]: ≤ 1 nM

B15: H-DMT-(D)Asp-G-bhF-N(Me)-Phe-OH (peptide)
peptide: H-[Dmt][dD]G[β3hF][NMeF]-OH
SMILES: Cc1cc(O)cc(C)c1C[C@H](N)C(=O)N[C@H](CC(=O)O)C(=O)NCC(=O)N[C@H](CC(=O)N(C)[C@@H](Cc1ccccc1)C(=O)O)Cc1ccccc1
DOR EC50 [1]: ≤ 1 nM | MOR EC50 [2]: ≤ 1 nM

B16: H-DMT-a-hF-Sar-NH2 (peptide)
peptide: H-[Dmt][dA][hPhe][Sar]-NH2
SMILES: Cc1cc(O)cc(C)c1C[C@H](N)C(=O)N[C@H](C)C(=O)N[C@@H](CCc1ccccc1)C(=O)N(C)CC(N)=O
DOR EC50 [5]: ≤ 1 nM | MOR EC50 [6]: ≤ 1 nM

B17: H-DMT-(D)Asp-G-bhF-N(Me)-Ala-OH (peptide)
peptide: H-[Dmt][dD]G[β3hF][NMeA]-OH
SMILES: Cc1cc(O)cc(C)c1C[C@H](N)C(=O)N[C@H](CC(=O)O)C(=O)NCC(=O)N[C@H](CC(=O)N(C)[C@@H](C)C(=O)O)Cc1ccccc1
DOR EC50 [1]: ≤ 1 nM | MOR EC50 [2]: ≤ 1 nM

H-[Dmt][dD]G[β3hF][NMeNle]-OH [H-DMT-(D)Asp-G-bhF-N(Me)-Nle-OH]
DOR EC50 [1]: ≤ 1 nM | MOR EC50 [2]: ≤ 1 nM

B18: H-DMT-(D)Asp-G-bhF-N(Me)-Nva-OH (peptide)
peptide: H-[Dmt][dD]G[β3hF][NMeNva]-OH
SMILES: CCC[C@@H](C(=O)O)N(C)C(=O)C[C@H](Cc1ccccc1)NC(=O)CNC(=O)[C@@H](CC(=O)O)NC(=O)[C@@H](N)Cc1c(C)cc(O)cc1C
DOR EC50 [1]: ≤ 1 nM | MOR EC50 [2]: ≤ 1 nM

B19: H-DMT-r-H-K-NH2 (peptide)
peptide: H-[Dmt][dR]HK-NH2
SMILES: Cc1cc(O)cc(C)c1C[C@H](N)C(=O)N[C@H](CCCNC(=N)N)C(=O)N[C@@H](Cc1c[nH]cn1)C(=O)N[C@@H](CCCCN)C(N)=O
DOR EC50 [5]: > 200 nM | MOR EC50 [6]: ≤ 50 nM

B20: [DMT-((D)Ala)-Gly-(β-homoPhe)-(Sar)-(D-Lys)]2-DIG (peptide)
peptide: H-[Dmt][dA]G[β3hF][Sar][dK]
modifications: not fully specified (C-terminus); printed as [DMT-((D)Ala)-Gly-(β-homoPhe)-(Sar)-(D-Lys)]2-DIG; also: homodimer: the two D-Lys joined through DIG linker (Dimer C)
DOR EC50 [3]: ≤ 10 nM | MOR EC50 [4]: ≤ 10 nM

H-[Dmt][dA]G[β3hF][Sar]K (also: homodimer: two monomers joined at X5 through a lysine linker (Dimer A)) [[DMT-((D)Ala)-Gly-(β-homoPhe)-(Sar)]2-Lys]
DOR EC50 [3]: ≤ 1 nM | MOR EC50 [4]: ≤ 1 nM

B21: H-DMT-(D)Asp-G-bhF-N(Me)-Tyr-OH (peptide)
peptide: H-[Dmt][dD]G[β3hF][NMeY]-OH
SMILES: Cc1cc(O)cc(C)c1C[C@H](N)C(=O)N[C@H](CC(=O)O)C(=O)NCC(=O)N[C@H](CC(=O)N(C)[C@@H](Cc1ccc(O)cc1)C(=O)O)Cc1ccccc1
DOR EC50 [1]: ≤ 1 nM | MOR EC50 [2]: ≤ 1 nM
